Here are results for 17 molecules from US20220390449A1, “NEW S[…] FOR THE LATENT FORM OF TOXOPLASMOSIS” (INSERM (INSTITUT NATIONAL DE LA SANTÉ ET DE LA RECHERCHE …, priority 2019, published 2022).

One test concerns BCLA positive sera. Kind of test: Epitope mapping of BCLA repeat and rBCLA (dot blot peptide assay). Type of test: binding. The following applies: 59 peptides of 15 aa covering res 1089-1275; human sera 1/400. The text has this:
Epitope mapping of BCLA repeat and rBCLA. Dot blot peptide assays were custom synthetized by JPT Peptide technologies on cellulose membranes with N-Acetyl moieties on the N-terminus. Two sets of membranes were screened: 1) covering the rBCLA region (res 1089-1275) with a total of 59 peptides, each 15 aa long with an overlap of 12 and an offset of 3; 2) covering repeat 4 (res 446-493) with a total of 18 peptides, each 15 aa long with an overlap of 12 and an offset of 3. Dot blot assays were performed as described by the manufacturer. Briefly, the membranes were first activated 5 min in 100% ethanol then washed 3 times 3 min in DPBS-tween. Blocked O.N at 4° C. in DPBS-Tween 0.5% powdered milk then washed again 3*3 min in DPBS-tween. Tested sera were diluted to 1/400 in DPBS-tween 0.1% BSA and incubated for 3 h at RT with the membrane. Following a 3*3 min DPBS-tween wash, membranes were incubated with anti-IgG peroxidase coupled Ab (Sigma A0170) diluted to 1/100 000 for 2 h at RT. […] Dot intensity was integrated using ImageJ. […]. For data analysis of independent dot blots, integrated intensities from every peptide dot [I(p)] were normalised into enrichment factors Fe(p) using the baseline integrated intensity of peptide 59[I(p=59)] which never reacts with any sera. The following can be expressed with the following equation: […]
In order to increase the reactivity score over several independent positive sera blots symbolised as (+), Fe(p) enrichment scores were summed with each other and to subtract the non-specific reactivity, the same sum was performed on the same number of negative sera peptides, symbolised as (−) and subtracted. Peptide reactivity scores can be expressed though the following equation:
Rs(p)=[Σ(Fe(p))^(+)−Σ(Fe(p))^(−)]

In test [1] the target is T1, His rBCLA (HisTag-rBCLA: C-terminal domain of BCLA, res 1089-1275, with a TEV cleavable N-terminal His-tag) (Toxoplasma gondii).
T1 construct: also called Cter-BCLA; recombinant rBCLA
T1 chain: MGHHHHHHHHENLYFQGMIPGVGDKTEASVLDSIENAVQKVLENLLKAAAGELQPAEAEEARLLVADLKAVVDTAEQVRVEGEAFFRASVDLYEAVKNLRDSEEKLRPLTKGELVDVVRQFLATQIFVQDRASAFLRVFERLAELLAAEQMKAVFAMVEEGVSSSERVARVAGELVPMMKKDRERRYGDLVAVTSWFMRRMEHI
As to the kind of experiment: ELISA, periplasmic extract on coated His rBCLA. Background: ELISA stands for enzyme-linked immunosorbent assay.

The next test has as its target His rBCLA. As to the kind of experiment: ELISA binding of purified VHH to immobilized His rBCLA. More on the design: species or system Toxoplasma gondii. The note with it: 200 ng/well antigen, serial dilution of VHH. On the procedure:
The binding of purified VHH to immobilized His rBCLA was analyzed by ELISA. A MaxiSorp plate was coated with 200 ng/well antigen overnight at 4° C. in PBS. After blocking the wells with 4% MPBS, a serial dilution of the VHH was added to the coated wells and incubated for 1 hour at room temperature. After washing unbound VHH, bound VHH were detected using a mouse-anti-flag (clone M2) and donkey-anti-mouse coupled to HRP. Binding was quantified by measuring colorimetric reaction of OPD+H2O2 at 490 nm. ERB-1G6, ERB-1B11 and ERB-1A12 show a subnanomolar apparent affinity to immobilized His rBCLA. ERB-1F1 and ERB-1F2 show a low nanomolar affinity. ERB-1H4 and ERB-1D7 show a […] apparent affinity to His rBCLA.

Test [2] concerns the target T1, His rBCLA (HisTag-rBCLA: C-terminal …). As to the kind of experiment: ELISA, serial dilution of purified VHH on coated His rBCLA (200 ng/well), anti-flag detection.
Test [3] has the same target. As to the kind of experiment: ELISA on coated His rBCLA (conclusion of Example 2).
Test [4] has the same target. Kind of test: phage display selection on His rBCLA and ELISA, as retold in the description.

“Also recorded” adds a separate entry of the source.

As for “QPAEAEEARLLVADL (Synthetic peptide 13 of rBCLA)”, in the test with BCLA positive sera, the “peptide reactivity (total reactivity score), rBCLA region array” value is “stronger zones of reactivity”. With “EGEAFFRASVDLYEA (Synthetic peptide 22 of rBCLA)”, the “peptide reactivity (total reactivity score), rBCLA region array” value with BCLA positive sera is listed as “stronger zones of reactivity”. On the same count and under the same terms, to “KLRPLTKGELVDVVR (Synthetic peptide 30 of rBCLA)” belongs “stronger zones of reactivity”.

B1: VHH ERB-1D7 (VHH)
VHH: KVQLVESGGGLVQAGGSLRLSCAASGRTFSRRGMGWFRQAPGKEREFVATIKWSGTSTDYADSVKGRFTISRDNAKNTVYLQMNNLQPEDTAVYYCAADRQLYRDGYVPLNEYEDWGQGTQVTVSS
notes: also called VH ERB-1D7; not shown: C-terminal FLAG and His-tag from vector pMEK222
Consider B1, for which the binding result in test [1] is given as “binds”.

B2: ERB-1D7: single domain antibody (VHH) selected on His rBCLA, SEQ ID NO: 63 (protein)
VHH: KVQLVESGGGLVQAGGSLRLSCAASGRTFSRRGMGWFRQAPGKEREFVATIKWSGTSTDYADSVKGRFTISRDNAKNTVYLQMNNLQPEDTAVYYCAADRQLYRDGYVPLNEYEDWGQGTQVTVSS
modifications: Synthetic VHH ERB-1D7
As for B2, on His rBCLA, the “apparent affinity to immobilized His rBCLA” value (from here on “apparent affinity”) was “molar”.

B3: VHH ERB-1G6 (VHH)
VHH: EVQLVESGGGLVQAGGSLGLSCAASGRPGRIFTRNSMAWFRQAPGKEREFVASINWSGTSTSYADSVKGRFAISRDNDKNTVYLQMNSLKPEDTAVYYCAADSALYGSMHKTPADYEYWGQGTQVTVSS
notes: also called VH ERB-1 G6; not shown: C-terminal FLAG and His-tag from vector pMEK222
Consider B3, for which the binding result in test [2] was “binds”.

B4: ERB-1G6: single domain antibody (VHH) selected on His rBCLA, SEQ ID NO: 57 (protein)
VHH: EVQLVESGGGLVQAGGSLGLSCAASGRPGRIFTRNSMAWFRQAPGKEREFVASINWSGTSTSYADSVKGRFAISRDNDKNTVYLQMNSLKPEDTAVYYCAADSALYGSMHKTPADYEYWGQGTQVTVSS
modifications: Synthetic VHH ERB-1G6
As to B4, the “apparent affinity” value on His rBCLA is reported as “subnanomolar; also recorded: very good”.

B5: VHH ERB-1F1 (VHH)
VHH: EVQLVESGGGLVQAGDSLRLSCAASGRTFSRVTMGWFRQAPGKEREFVAGISWSGTRTDYPDSVKGRFTVSRDNAKKTMWLQMSSLRPEDTAVYHCAADSTLYGSAISNNREAYAYWGQGTQVTVSS
notes: also called VH ERB-1F1; not shown: C-terminal FLAG and His-tag from vector pMEK222
Take B5: the binding result in test [1] was “binds”.

B6: ERB-1F1: single domain antibody (VHH) selected on His rBCLA, SEQ ID NO: 60 (protein)
VHH: EVQLVESGGGLVQAGDSLRLSCAASGRTFSRVTMGWFRQAPGKEREFVAGISWSGTRTDYPDSVKGRFTVSRDNAKKTMWLQMSSLRPEDTAVYHCAADSTLYGSAISNNREAYAYWGQGTQVTVSS
modifications: Synthetic VHH ERB-1F1
Turning to B6, the “apparent affinity” value at His rBCLA was “low nanomolar”.

B7: VHH ERB-1H4 (VHH)
VHH: EVQLVESGGGLVQAGGSLRLSCVASGRTFSRYTVGWFRQAPGKEREFVAGISWSGSRTSYADSVKGRFTISRDNDKTTGYLQMNSLKPEDTAVYYCAAITKLYENNIPRSVSDYALWGQGTQVTVSS
notes: also called VH ERB-1H4; not shown: C-terminal FLAG and His-tag from vector pMEK222
As to B7, in test [1], the binding result was “binds”.

B8: ERB-1H4: single domain antibody (VHH) selected on His rBCLA, SEQ ID NO: 62 (protein)
VHH: EVQLVESGGGLVQAGGSLRLSCVASGRTFSRYTVGWFRQAPGKEREFVAGISWSGSRTSYADSVKGRFTISRDNDKTTGYLQMNSLKPEDTAVYYCAAITKLYENNIPRSVSDYALWGQGTQVTVSS
modifications: Synthetic VHH ERB-1H4
As to B8, the “apparent affinity” value at His rBCLA is recorded as “molar”.

B9: VHH ERB-1F2 (VHH)
VHH: EVQLVESGGGLVQVGGSLRLSCAASGRTFRRNTIGWFRQAPGKEREFVAAISWSGTRTKYADPVKGRFTISRDNDKNTAYLQMNTLKPDDTAVYYCAADGALYGSDVSGLARVYDYWGQGTQVTVSS
notes: also called VH ERB-1F2; not shown: C-terminal FLAG and His-tag from vector pMEK222
Regarding B9, the binding result in test [1] is “binds”.

B10: ERB-1F2: single domain antibody (VHH) selected on His rBCLA, SEQ ID NO: 61 (protein)
VHH: EVQLVESGGGLVQVGGSLRLSCAASGRTFRRNTIGWFRQAPGKEREFVAAISWSGTRTKYADPVKGRFTISRDNDKNTAYLQMNTLKPDDTAVYYCAADGALYGSDVSGLARVYDYWGQGTQVTVSS
modifications: Synthetic VHH ERB-1F2
Regarding B10, at His rBCLA, the “apparent affinity” value is listed as “low nanomolar”.

B11: VHH ERB-1A12 (VHH)
VHH: EVQLVESGGGLVQAGGSLRLSCAASGRTFSRYFMGWFRQAPGKEREFVAGIIWSGTRTYYVDSVKGRFTISRDNDKRMVYLQMNSLKPEDTAVYYCAAYKEYYGTPAQLYAAASYDYWGQGTQVTVSS
notes: also called VH ERB-1A12; not shown: C-terminal FLAG and His-tag from vector pMEK222
For B11, the binding result in test [3] is “binds”.

B12: ERB-1A12: single domain antibody (VHH) selected on His rBCLA, SEQ ID NO: 59 (protein)
VHH: EVQLVESGGGLVQAGGSLRLSCAASGRTFSRYFMGWFRQAPGKEREFVAGIIWSGTRTYYVDSVKGRFTISRDNDKRMVYLQMNSLKPEDTAVYYCAAYKEYYGTPAQLYAAASYDYWGQGTQVTVSS
modifications: Synthetic VHH ERB-1A12
For B12, on His rBCLA, the “apparent affinity” value is given as “subnanomolar; also recorded: very good”.

B13: VHH ERB-1B11 (VHH)
VHH: EVQLVESGGGLVQAGGSLRLTCAASGRTFRRSNMAWFRQPPGKERDFVAAIKWSGSSTNYADSVKGRFTISRDNDKNTVYLQMNVLKPEDTGVYYCAQESSLYSNYLPVVSSAYDYWGQGTQVTVSS
notes: also called VH ERB-1 B11; not shown: C-terminal FLAG and His-tag from vector pMEK222
B13: the binding result in test [4] is given as “binds”.

B14: ERB-1B11: single domain antibody (VHH) selected on His rBCLA, SEQ ID NO: 58 (protein)
VHH: EVQLVESGGGLVQAGGSLRLTCAASGRTFRRSNMAWFRQPPGKERDFVAAIKWSGSSTNYADSVKGRFTISRDNDKNTVYLQMNVLKPEDTGVYYCAQESSLYSNYLPVVSSAYDYWGQGTQVTVSS
modifications: Synthetic VHH ERB-1B11
Regarding B14, at His rBCLA, the “apparent affinity” value is “subnanomolar; also recorded: very good”.
